Data from article PMC10403129.

Legend:
hnRNP U WT (SP120) (rat) = assay: EMSA; conditions: C50, competitive with equimolar vector, 5 mM Mg2+, 10 mM MgCl2 in gel, EMSA: 35 mM Tris-HCl pH 8.0, 72 mM KCl, 5 mM MgCl2, 5 mM DTT, 5 mM spermidine, 50 ug/ml BSA, 37 C, on-bead: 50 mM Tris-HCl pH 8.0, 120 mM KCl
hnRNP U ΔSAP (rat) = assay: EMSA; conditions: C50, competitive with equimolar vector, 5 mM Mg2+, 10 mM MgCl2 in gel, EMSA: 35 mM Tris-HCl pH 8.0, 72 mM KCl, 5 mM MgCl2, 5 mM DTT, 5 mM spermidine, 50 ug/ml BSA, 37 C, on-bead: 50 mM Tris-HCl pH 8.0, 120 mM KCl
GST-RG (rat) = assay: on-bead pull-down; conditions: Hill 1.8, 100 ng pBS/FTZ, 2 ul beads, 10 mM Mg2+, EMSA: 35 mM Tris-HCl pH 8.0, 72 mM KCl, 5 mM MgCl2, 5 mM DTT, 5 mM spermidine, 50 ug/ml BSA, 37 C, on-bead: 50 mM Tris-HCl pH 8.0, 120 mM KCl, 10 mM MgCl2 …
GST-SAP (rat) = assay: on-bead pull-down; conditions: Hill 4.6, 100 ng pBS/FTZ, 2 ul beads, 10 mM Mg2+, EMSA: 35 mM Tris-HCl pH 8.0, 72 mM KCl, 5 mM MgCl2, 5 mM DTT, 5 mM spermidine, 50 ug/ml BSA, 37 C, on-bead: 50 mM Tris-HCl pH 8.0, 120 mM KCl, 10 mM MgCl2 …
GST-SAP-RG (rat) = assay: on-bead pull-down; conditions: Hill 2.5; 100 ng pBS/FTZ, 10 mM Mg2+; unit implied by comparison; EMSA: 35 mM Tris-HCl pH 8.0, 72 mM KCl, 5 mM MgCl2, 5 mM DTT, 5 mM spermidine, 50 ug/ml BSA, 37 C; on-bead: 50 mM Tris-HCl pH 8.0, 120 mM KCl, 10 mM MgCl2 …

## FTZ S/MAR insert
hnRNP U WT (SP120) (rat)
  K half: 14 nM
hnRNP U ΔSAP (rat)
  K half: 32 nM
GST-RG (rat)
  half-saturation protein amount (pmol (on beads)): 13
GST-SAP (rat)
  half-saturation protein amount (pmol (on beads)): 22.5
GST-SAP-RG (rat)
  Kd (pmol (on beads)): 6.7
